Numbering of substitutions follows the chain as printed. Values belong to the binder of their own block, whether it stands above or below them.
Experiments:
[1] = target: T1, soluble CD23 antigen (soluble and monomeric form) (UniProt P06734 150-321); experiment: DELFIA
T1 chain: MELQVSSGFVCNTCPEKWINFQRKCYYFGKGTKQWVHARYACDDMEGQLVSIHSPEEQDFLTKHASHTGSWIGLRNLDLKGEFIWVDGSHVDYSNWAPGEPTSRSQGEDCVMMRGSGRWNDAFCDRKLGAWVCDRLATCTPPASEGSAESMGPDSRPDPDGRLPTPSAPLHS

[2] = target: T1, soluble CD23 antigen (soluble and …); experiment: Biacore
[3] = target: T1, soluble CD23 antigen (soluble and …); experiment: FRET competition
IEH-241 [4] = experiment: DELFIA
IEH-248 [5] = experiment: DELFIA
IEH-251 [6] = experiment: DELFIA
IEH-245 [7] = experiment: DELFIA
IEH-250 [8] = experiment: DELFIA
IEH-243 [9] = experiment: DELFIA
IEH-239 = experiment: DELFIA
IEH-241 [10] = experiment: Biacore
IEH-248 [11] = experiment: Biacore
IEH-251 [12] = experiment: Biacore
IEH-245 [13] = experiment: Biacore
IEH-250 [14] = experiment: Biacore
IEH-243 [15] = experiment: Biacore

Kd [1]: 1.2 nM
Kd [2]: 0.8 nM
IC50 [3]: 0.052 µg/mL
B1: stabilized p5E8 pIEH252 scFv (scFv)
scFv: DIQMTQSPSSLSASVGDRVTITCRASQDIRYYLNWYQQKPGKAPKLLIYSASSLQSGVPSRFSGSGSGTEFTLTVSSLQPEDAATYYCLQVYSTPRTFGQGTKVEIKGGGGSGGGGSGGGGSEVQLVQSGGGLAKPGGSLRLSCAASGFRFTFSNYYMDWVRQAPGQGLEWVGRISSSGDPTWYADSVKGRFTISRDNAKNTLFLQMNSLRAEDTAVYYCASLTTGSDSWGQGVLVTVSS

Kd [1]: 1 nM
Kd [2]: 0.9 nM
IC50 [3]: 0.061 µg/mL
B2: stabilized p5E8 pIEH246 scFv (scFv)
scFv: B1 scFv with S154N, P181H, D197E

Kd (IEH-241 [4]): 1.2 nM
Kd (IEH-248 [5]): 2.4 nM
Kd (IEH-251 [6]): 1.5 nM
Kd (IEH-245 [7]): 1 nM
Kd (IEH-250 [8]): 2.6 nM
Kd (IEH-243 [9]): 1.2 nM
Kd (IEH-239): 3 nM
Kd (IEH-241 [10]): 4.6 nM
Kd (IEH-248 [11]): 1.3 nM
Kd (IEH-251 [12]): 3.2 nM
Kd (IEH-245 [13]): 1.1 nM
Kd (IEH-250 [14]): 4.3 nM
Kd (IEH-243 [15]): 2.8 nM
B3: CD23 (receptor)
chain: T1 chain
